In paper PMC8790524, “Probing the binding of interleukin-23 to individual receptor components and the IL-23 heteromeric receptor complex in living cells using NanoBRET” (Cell Chemical Biology, 2022):
“And” between values parts separate entries of the source, which are not always exact repeats. Identical values can stand only once.

What was measured:
[1] = target: T1, NL-IL23R co-expressed with untagged IL12Rβ1 (heteromeric IL-23 receptor complex) (UniProt Q5VWK5 24-629; P42701-1 24-662); experiment: cell-based or functional assay
[2] = target: T2, NL-IL23R co-expressed with SNAP-tag fused IL12Rβ1 (UniProt Q5VWK5 24-629; P42701 24-662); experiment: cell-based or functional assay
[3] = target: wild-type IL23R heteromer (IL23R and IL12Rβ1) (UniProt Q5VWK5-1 24-629; P42701-1 24-662); experiment: cell-based or functional assay
[4] = target: T3, NL-IL23R co-expressed with HaloTag fused IL12Rβ1 (UniProt Q5VWK5 24-629; P42701 24-662); experiment: cell-based or functional assay
[5] = target: NL-IL12Rβ1 co-expressed with HaloTag-IL23R (UniProt P42701 24-662; Q5VWK5 24-629, HaloTag NanoBRET 618 ligand bound to the HaloTag); experiment: cell-based or functional assay
[6] = target: T1, NL-IL23R co-expressed with untagged …; experiment: FRET or BRET; NanoBRET competition on living HEK293T cells co-transfected with NL-IL23R and IL12Rβ1: titration of unlabelled IL-23 against several concentrations of IL23-TMR; HBSS with 1 mg/ml BSA, 1 h; Ki by Cheng-Prusoff or by linear regression of IC50 against IL23-TMR concentration; conditions: one partner purified
[7] = target: T4, NanoLuciferase-tagged full-length IL12Rβ1 (UniProt P42701 24-662); experiment: FRET or BRET; NanoBRET saturation binding of IL23-TMR to living HEK293T cells transiently expressing the NL-fused receptor (alone or 1:1 with the partner receptor plasmid); HBSS with 1 mg/ml BSA, 1 h, 37.5°C; non-specific binding with an excess of unlabelled IL-23 (50 nM to 1 μM); conditions: one partner purified
T4 construct: IL-12 receptor subunit β1 (IL12Rβ1), full-length, synthesised without its endogenous signal peptide; Gly-Ser-Arg linker between NanoLuciferase and its N terminus; Open reading frame: N-terminal IL-6 secretion signal, NanoLuciferase, Gly-Ser-Arg, IL12Rβ1; in a pNLF vector; also called NL-IL12Rβ1; IL6SS-NL-IL12Rβ1; source: HEK293T, transiently transfected, on living cells; not shown: …

[8] = target: T1, NL-IL23R co-expressed with untagged …; experiment: as above; conditions: one partner purified
[9] = target: T5, NanoLuciferase-tagged full-length IL23R (UniProt Q5VWK5 24-629); experiment: as above; conditions: one partner purified
T5 construct: IL-23 receptor (IL23R), full-length, synthesised without its endogenous signal peptide; Gly-Ser-Arg linker between NanoLuciferase and its N terminus; Open reading frame: N-terminal IL-6 secretion signal, NanoLuciferase, Gly-Ser-Arg, IL23R; in a pNLF vector; also called NL-IL23R; IL6SS-NL-IL23R; source: HEK293T, transiently transfected, on living cells; not shown: NanoLuciferase, N-terminal, kept
T5 sequence (looked up): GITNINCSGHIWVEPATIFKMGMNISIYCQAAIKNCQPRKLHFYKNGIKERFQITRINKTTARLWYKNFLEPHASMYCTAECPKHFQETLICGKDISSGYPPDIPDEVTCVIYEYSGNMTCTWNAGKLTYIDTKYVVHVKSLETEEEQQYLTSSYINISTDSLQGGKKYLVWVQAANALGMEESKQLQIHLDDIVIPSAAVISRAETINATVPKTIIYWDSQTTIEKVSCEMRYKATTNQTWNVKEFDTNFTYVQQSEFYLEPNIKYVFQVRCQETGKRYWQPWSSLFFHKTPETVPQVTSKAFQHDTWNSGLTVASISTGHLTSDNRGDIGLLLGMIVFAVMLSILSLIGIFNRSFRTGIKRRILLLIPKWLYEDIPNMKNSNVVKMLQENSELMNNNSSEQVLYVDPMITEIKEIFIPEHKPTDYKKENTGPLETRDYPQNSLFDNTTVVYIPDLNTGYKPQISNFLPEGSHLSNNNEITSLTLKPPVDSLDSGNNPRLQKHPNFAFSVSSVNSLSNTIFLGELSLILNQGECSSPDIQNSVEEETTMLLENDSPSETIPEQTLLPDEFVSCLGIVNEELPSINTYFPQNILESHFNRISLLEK

[10] = target: T2, NL-IL23R co-expressed with SNAP-tag …; experiment: as above; conditions: one partner purified
[11] = target: T6, NL-IL12Rβ1 co-expressed with unlabeled IL23R (UniProt P42701 24-662; Q5VWK5-1 24-629); experiment: as above; conditions: one partner purified
T6 construct: IL-12 receptor subunit β1 (IL12Rβ1), full-length, synthesised without its endogenous signal peptide; Gly-Ser-Arg linker between NanoLuciferase and its N terminus; IL-23 receptor (IL23R) from the Origene IL23R-MYCDDK expression plasmid; called unlabeled or untagged in the results; also called NL-IL12Rβ1:IL23R complex; NL-IL12Rβ1 + IL23R; source: HEK293T, transiently co-transfected (1:1 or 1:10 …)

[12] = target: T3, NL-IL23R co-expressed with HaloTag …; experiment: as above; conditions: one partner purified
[13] = target: T6, NL-IL12Rβ1 co-expressed with unlabeled …; experiment: FRET or BRET; NanoBRET saturation binding of IL23-TMR to living HEK293T cells transfected with NL-IL12Rβ1 and IL23R at a 1:10 ratio (2.2 μg total DNA per well); HBSS with 1 mg/ml BSA, 1 h; non-specific binding with 100 nM unlabelled IL-23; conditions: one partner purified

B1: Recombinant IL-23 protein (unlabeled) (ligand)
chain 1: RAVPGGSSPAWTQCQQLSQKLCTLAWSAHPLVGHMDLREEGDEETTNDVPHIQCGDGCDPQGLRDNSQFCLQRIHQGLIFYEKLLGSDIFTGEPSLLPDSPVGQLHASLLGLSQLLQPEGHHWETQQIPSLSPSQPWQRLLLRFKILRSLQAFVAVAARVFAHGAATLSP
chain 2: IWELKKDVYVVELDWYPDAPGEMVVLTCDTPEEDGITWTLDQSSEVLGSGKTLTIQVKEFGDAGQYTCHKGGEVLSHSLLLLHKKEDGIWSTDILKDQKEPKNKTFLRCEAKNYSGRFTCWWLTTISTDLTFSVKSSRGSSDPQGVTCGAATLSAERVRGDNKEYEYSVECQEDSACPAAEESLPIEVMVDAVHKLKYENYTSSFFIRDIIKPDPPKNLQLKPLKNSRQVEVSWEYPDTWSTPHSYFSLTFCVQVQGKSKREKKDRVFTDKTSATVICRKNASISVRAQDRYYSSSWSEWASVPCS
modifications: several mass peaks differing by 162 Da, most likely N-linked glycosylation
notes: IL23p19, the alpha subunit of IL-23, disulfide-linked to IL12p40; IL12p40, the beta subunit of IL-23, disulfide-linked to IL23p19; also called interleukin-23; unlabeled IL-23; source: HEK293-F, co-transduced with BacMam viruses (p19-His and p40), purified from the supernatant (Ni-Sepharose); gift of GlaxoSmithKline
In the case of B1, the “potency (EC50) of IL-23 for STAT3 phosphorylation (Tyr705, AlphaLISA SureFire Ultra), HEK293T cells, 30 min” value (shortened to “potency (EC50)”) [1] is reported as 0.154 nM, the “EC50 of IL-23 for the increase in intra-receptor BRET between NL-IL23R and SNAP-IL12Rβ1 (AF488)” value [2] is reported as 0.0429 nM and the “potency (EC50)” value [2] is reported as 0.15 nM. The “EC50 of IL-23 for STAT3 phosphorylation (Tyr705, AlphaLISA SureFire Ultra), HEK293T cells, 30 min” value [3] was 0.269 nM, the “EC50 of IL-23 for the decrease in intra-receptor BRET between NL-IL23R and HaloTag-IL12Rβ1 (HT618)” value [4] was 0.0436 nM and the “potency (EC50)” value [4] was 0.199 nM. For the same binder, the “EC50 of IL-23 for the increase in intra-receptor BRET between NL-IL12Rβ1 and HaloTag-IL23R” value [5] was 0.457 nM and the Ki [6] was 0.0316 nM and 0.0272 nM.

B2: TAMRA-conjugated IL-23 (ligand)
chain 1: B1 chain 1
chain 2: B1 chain 2
modifications: TAMRA (5(6)-carboxytetramethylrhodamine, coupled as NHS ester); 64.9% of TAMRA labels were located on IL23p19; sites not stated | TAMRA (labelled to a lesser extent than IL23p19; sites not stated); several mass peaks differing by 162 Da, most likely N-linked glycosylation
notes: IL23p19, the alpha subunit of IL-23, disulfide-linked to IL12p40; IL12p40, the beta subunit of IL-23, disulfide-linked to IL23p19; A mixture: by LC-MS 52.3% unlabeled, 29.5% single and 18.2% double labeled; by FCS/PCH 39.6% mono-labeled, 11.9% multi-labeled, 48.5% unlabeled; also called IL23-TMR; TAMRA-tagged IL-23; source: HEK293-F, co-transduced with BacMam viruses (p19-His and p40), purified …
In the case of B2, the Kd [7] is reported as 30.1 nM, the Kd [8] is reported as 0.027 nM and the Kd [9] is reported as 222 nM. For the same binder, the Kd [10] was 0.454 ± 0.043 nM, the “KD of the high-affinity site (two-site fit)” value [11] was 0.028 nM and the “KD of the low-affinity site (two-site fit)” value [11] was 72 nM. The Kd [11] was 46.7 nM, the Kd [12] was 0.179 ± 0.008 nM and the Kd [13] was 0.647 nM. The Kd [6] was 0.0351 nM.
